Experimental data from patent US12565517B2, “Cyclic peptide having CTLA-4 inhibitory activity and use thereof” (GeneFrontier Corporation, priority 2019, dated 2026).

Biological target: T1, CTLA-4 (Homo sapiens, UniProt P16410)
T1 sequence (P16410 36-223): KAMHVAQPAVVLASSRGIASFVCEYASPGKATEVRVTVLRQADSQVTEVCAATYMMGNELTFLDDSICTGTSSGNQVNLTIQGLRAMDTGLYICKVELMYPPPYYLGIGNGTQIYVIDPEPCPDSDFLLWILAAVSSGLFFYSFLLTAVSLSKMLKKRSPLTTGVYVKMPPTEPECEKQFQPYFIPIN
Assay: ELISA binding of clones after Affinity Maturation with random library (Tables 10, 11)
Conditions: CTLA-4 binding ELISA of clones after Affinity Maturation from random (NNS) library; signal/noise ratio; clones of 4th or 5th round
Method: After each round of Affinity Maturation, the cyclic peptide genes were recovered and subcloned into pET-Mal vector (FIG. 2) in the same manner as described above to perform base sequence analysis. For the 94 single colonies analyzed for sequence, E. coli transformants were inoculated into 100 μL of 2×YT medium containing ampicillin (final concentration 50 μg/mL), incubated at 37° C. for 3-5 hours (OD600=0.5-0.8), then added with IPTG (final concentration 0.5 mM) and incubated at 25° C. overnight. 10 μL of E. coli cultured medium was added with 90 μL of PBS and 40 μL of lysis reagent (20 μL BugBuster Protein Extraction Reagent (Novagen), 20 μL Lysozyme solution 2.5 mg/mL) to lyse E. coli cells for 1 hour at room temperature. The cell lysate was added with 40 μL of 12.5% skim milk solution (TBST) and blocked for 1 hour at room temperature. In parallel, antigen protein was immobilized overnight at 4° C. in 384-well plates at 100 ng/20 μL per well, and each well was washed twice with 100 μL/well of TBST, added with 100 μL/well of 5% skim milk solution (TBST) for blocking for 1 hour at room temperature, and washed twice with 100 μL/well of TBST to obtain antigen-immobilized plates. 20 μL/well of blocking-treated E. coli extract was added to the antigen-immobilized plates and gently stirred at room temperature using a plate mixer. After 1 hour, the plates were washed 5 times with 100 μL/well of TBST, 20 μL/well of anti-FLAG M2-HRP conjugate (1:2000 dilution, Sigma) was added and gently stirred on a plate mixer for 1 hour at room temperature. The plates were washed 5 times with 100 μL/well of TBST, and binding of cyclic peptides to the antigen was detected by 20 μL/well of chromogenic substrate (0.4 mg/mL 3,3′,5,5′-Tetramethyl-benzidine, 0.01% hydrogen peroxide). After 15 minutes of reaction at room temperature, the reaction was stopped with 20 μL/well of 2N HCl, and absorbance at 450 nm was measured using a plate reader (infinite F200: TECAN) (Table 5).
Oligo DNAs of a library were synthesized (see below), in which amino acid residues (positions 1, 4, 8, 10, +1 and +2) (corresponding to X1, […], X8, X10, X+1 and X+2) other than those essential or advantageous for CTLA-4 binding (2H, 3P, 5L, 6P, 7I, 9S, 11H, 12F) identified by alanine scanning were randomized (NNS).
Affinity Maturation was performed in the same manner as described above. The amount of biotinylated CTLA-4 immobilized on the magnetic beads was 10 pmol in the 1st round, 2 pmol in the 2nd round, and 1 pmol in the 3nd-5th rounds, respectively. The washing period was 2 hours for the 1st round, 19 hours for the 2nd round, 67 hours for the 3nd round, 140 hours for the 4th round, and 340 hours for the 5th round. Washing frequency was 1 time (2 hours) in the 1st round, 2 times (every 10 hours) in the 2nd round, 6 times (every 10 hours) in the 3rd round, 14 times (every 10 hours) in the 4th round, and 36 times (every 10 hours) in the 5th round.

Substance | ELISA S/N(SA)
C4m#19-5th4w-NN6-47 (GGCPHPWLPIFSRHFCPV; C4m#19-5th4w-NN6-47) | 34.2
C4m#19-5th2w-NNS6-87 (GGCLHPYLPIFSVHFCAL; C4m#19-5th2w-NNS6-87) | 4.5
C4m3127-4th-NNS6-66 (GGCAHPHLPIRSVHFCSF; C4m3127-4th-NNS6-66) [Clone C4m3127-4th-NNS6-66] | 4.8
C4m#19-5th4w-NN6-50 (GGCKHPVLPIWSWHFCRI; C4m#19-5th4w-NN6-50) | 28.1
C4m#19-5th2w-NNS6-27 (GGCFHPFLPIRSCHFCAR; C4m#19-5th2w-NNS6-27) | 9.9
C4m#19-5th4w-NN6-56 (GGCWHPFLPIQSLHFCGV; C4m#19-5th4w-NN6-56) | 27.1
C4m#19-5th4w-NN6-90 (GGCRHPWLPIVSYHFCSS; C4m#19-5th4w-NN6-90) | 21.2
C4m#19-5th4w-NN6-2 (GGCWHPHLPIVSSHFCLF; C4m#19-5th4w-NN6-2) | 18.4
C4m#19-5th4w-NN6-64 (GGCWHPVLPIRSVHFCCR; C4m#19-5th4w-NN6-64) | 13.7
C4m#19-5th4w-NN6-52 (GGCLHPFLPIRSVHFCGC; C4m#19-5th4w-NN6-52) | 28.6
C4m#19-5th2w-NNS6-67 (GGCQHPWLPISSWHFCPR; C4m#19-5th2w-NNS6-67) | 25.5
C4m#19-5th2w-NNS6-22 (GGCMHPFLPIQSVHFCSR; C4m#19-5th2w-NNS6-22) | 29.3
C4m#19-5th4w-NN6-51 (GGCWHPYLPIVSWHFCSR; C4m#19-5th4w-NN6-51) | 22.1
C4m#19-5th4w-NN6-89 (GGCMHPFLPIISQHFCAF; C4m#19-5th4w-NN6-89) | 8.3
C4m3127-4th-NNS6-80 (GGCGHPFLPIFSLHFCPR; C4m3127-4th-NNS6-80) [Clone C4m3127-4th-NNS6-80] | 12.8
C4m#19-5th4w-NN6-45 (GGCRHPWLPIWSVHFCGV; C4m#19-5th4w-NN6-45) | 15.8
C4m3127-4th-NNS6-2 (GGCWHPSLPIYSPHFCPL; C4m3127-4th-NNS6-2) [Clone C4m3127-4th-NNS6-2] | 12.8
C4m#19-5th4w-NN6-70 (GGCMHPFLPIRSMHFCPL; C4m#19-5th4w-NN6-70) | 35.5

Second part, the substance after the results:

ELISA S/N(SA) | Substance
7.1 | C4m3127-4th-NNS6-26 (GGCAHPALPIWSCHFCPF; C4m3127-4th-NNS6-26) [Clone C4m3127-4th-NNS6-26]
3.8 | C4m#19-5th4w-NN6-80 (GGCRHPFLPIFSWHFCAV; C4m#19-5th4w-NN6-80)
6.1 | C4m#19-5th2w-NNS6-46 (GGCFHPFLPIFSYHFCGL; C4m#19-5th2w-NNS6-46)
9.1 | C4m3127-4th-NNS6-85 (GGCGHPFLPIFSSHFCPL; C4m3127-4th-NNS6-85) [Clone C4m3127-4th-NNS6-85]
6.6 | C4m3127-4th-NNS6-89 (GGCWHPFLPIFSAHFCMR; C4m3127-4th-NNS6-89) [Clone C4m3127-4th-NNS6-89]
18.7 | C4m#19-5th4w-NN6-58 (GGCRHPFLPISSIHFCCI; C4m#19-5th4w-NN6-58)
32.2 | C4m#19-5th4w-NN6-53 (GGCRHPFLPIYSVHFCAC; C4m#19-5th4w-NN6-53)
11.4 | C4m#19-5th2w-NNS6-53 (GGCLHPWLPIRSFHFCGA; C4m#19-5th2w-NNS6-53)
21.1 | C4m#19-5th2w-NNS6-25 (GGCKHPFLPISSHHFCPY; C4m#19-5th2w-NNS6-25)
22.9 | C4m#19-5th4w-NN6-85 (GGCWHPFLPIFSVHFCGC; C4m#19-5th4w-NN6-85)
30.6 | C4m#19-5th4w-NN6-20 (GGCSHPQLPILSDHFCSA; C4m#19-5th4w-NN6-20)

Same assay, conditions: S/N ratio of CTLA-4 binding in ELISA; clones from 4th or 5th round of Affinity Maturation from random (NNS) library

ELISA S/N(SA) | Substance
3.4 | C4m#19-5th2w-NNS6-93 (GGCFHPFLPIQSRHFCCR; C4m#19-5th2w-NNS6-93)
3.5 | C4m3127-4th-NNS6-37 (GGCWHPVLPIRSIHFCGC; C4m3127-4th-NNS6-37) [Clone C4m3127-4th-NNS6-37]
